Results taken from paper PMC8578495.
Like-named read-outs stand apart in the source and are kept apart here.

Row | Substance | expression_or_secretion (ubiquitination at K86) | expression_or_secretion (ubiquitination at K827) | expression_or_secretion (ubiquitination at K848)
1 | Mps1: K86R | increases | – | –
2 | Mps1: K827R | – | increases | –
3 | Mps1: K848R | – | – | increases
4 | Mps1: RRR (K86R, K827R, K848R) | increases | increases | increases
